In one assay the target is T1, GDF15-mFC protein (human; mouse, UniProt Q99988 197-308).
T1 construct: extracellular domain;domain: IgG2a-FC; also called GDF15-mFc fusion protein
T1 sequence (looked up): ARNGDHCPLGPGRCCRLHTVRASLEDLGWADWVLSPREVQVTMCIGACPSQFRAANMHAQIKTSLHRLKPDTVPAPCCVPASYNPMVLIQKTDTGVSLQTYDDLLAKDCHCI
In words: blocking ELISA as in Example 4, GFRAL-hIgG1 Fc coated (competitor), GDF15-mFC mixed with antibody. The procedure:
A fusion protein comprising the extracellular region of GFRAL protein (Genbank accession number NM_207410.2) and human IgG1-FC (Genbank accession number CAC20454.1) was diluted to […] with coating solution, followed by adding to ELISA plate at 50 μl/well and incubating at 4° C. overnight. The solution in the wells was discarded and the plate was washed 3 times with washing solution, each time for 3-5 minutes, and dried via tapping. 200 μl of blocking solution was added to each well followed by incubating at 4° C. overnight. The plate was washed 3 times with washing solution, and the coated plate may be stored at −20° C. or 4° C. for future use.
The antibodies to be tested, positive control antibody AV380-mIgG1 and blank control (PBS) were added to the wells. […] At the same time, GDF15-mFC protein (GDF15: Genbank accession number NM_004864.3; mFC: Genbank accession number AAH31470.1) was added at 20 ng/well and mixed with the antibodies to be tested. The wells were incubated at 37° C. for 1 hour, washed, and dried via tapping. Then the enzyme-labeled secondary antibody, horseradish peroxidase-labeled goat anti-mouse IgG (SIGMA, catalog number A9044-2 ml) was added to each well, at a dilution of 1:10000, 50-100 μl/well. The wells were incubated at 37° C. for 2 hours, washed, and dried via tapping. 100 μl of freshly prepared developing solution TMB was added to each well and incubated at 37° C. for 30 minutes. 2 mol/L H₂SO₄ was added to terminate the reaction, and the OD value was obtained on an enzyme-linked immunosorbent reader.
The experiment was performed as detailed in Example 4, except that the antibodies to be tested (the humanized antibodies), negative control antibody (hIgG1), and positive control antibodies Ponsegromab and AV380-hIgG1 were added to each well of the coated plate.
A general note: In an ELISA, binding on a coated surface is turned into a signal by an enzyme label.

Assay [1] deals with T2, GDF15-HIS (ACROBiosystems, CAT #: GD5-H5149) (human, UniProt Q99988 197-308).
T2 construct: Bought protein; also called GDF15 (ACROBiosystems, GD5-H5149); human GDF15; not shown: His tag
T2 sequence (looked up): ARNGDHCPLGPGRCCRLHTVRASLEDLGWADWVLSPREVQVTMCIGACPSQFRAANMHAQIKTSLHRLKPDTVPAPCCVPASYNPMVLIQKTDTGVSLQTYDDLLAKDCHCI
In words: ELISA in stability test, antibody after pH 3.6 for 2-4 h; coated antigen not named. The procedure: An appropriate amount of each antibody was taken and adjusted to 5 mg/mL in storage buffer adjusted to pH 3.6 using an ultrafiltration tube. The antibodies were placed at room temperature for 2-4 hours, then protein aggregation was detected using SEC-HPLC, and protein binding activity change was detected by ELISA.

Assay [2] concerns the target T2, GDF15-HIS (ACROBiosystems, CAT #: …). In words: ELISA, GDF15-HIS coated. The procedure:
The experiment was performed as detailed in Example 2, except that the coating protein was GDF15-HIS (ACROBiosystems, CAT #: GD5-H5149), and the antibodies to be tested (the humanized antibodies), negative control antibody (hIgG1), positive control antibodies Ponsegromab (Pfizer; Drug Bank: D11909) and AV380-hlgG1 (the heavy chain and light chain constant regions of AV380-mIgG1 were replaced with the constant regions of human IgG, i.e., SEQ ID NO. 5 and SEQ ID NO. 6) were added to each well of the coated plate.

A further assay concerns the target T3, cynoGDF15-mFC (monkey (cyno); mouse, UniProt G7PWZ3 197-308).
T3 construct: also called monkey GDF15 (cynoGDF15)
T3 sequence (looked up): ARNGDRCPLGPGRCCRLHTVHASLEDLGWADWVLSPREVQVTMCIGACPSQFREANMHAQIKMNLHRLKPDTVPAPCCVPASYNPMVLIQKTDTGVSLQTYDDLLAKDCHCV
The assay is described as follows: ELISA, cynoGDF15-mFC coated. The procedure:
The experiment was performed as detailed in Example 2, except that the coating protein was cynoGDF15-mFC (GDF15: Genbank accession number EHH29815.1; mFC: Genbank accession number AAH31470.1), and the antibodies to be tested (the humanized antibodies), negative control antibody (hIgG1), and positive control antibodies Ponsegromab and AV380-hIgG1 were added to each well of the coated plate.

Assay [3] has as its target T2, GDF15-HIS (ACROBiosystems, CAT #: …). In words: ELISA in stability test, antibody after 5 freeze-thaw cycles; coated antigen not named. The procedure:
An appropriate amount of each antibody was taken and adjusted to 10 mg/mL, followed by freezing at −80° C. for 10 min, and placing in an ice-water mixture to slowly thaw. The above procedure was repeated 5 times. Protein aggregation was detected using SEC-HPLC, and protein binding activity change was detected by ELISA.

For assay [4] the target is unchanged. In words: cell-based or functional assay.
For assay [5] the target is unchanged. In words: cell-based or functional assay. The source holds these as a separate data set.
Assay [6] shares this target. In words: ELISA in stability test, antibody before treatment; coated antigen not named; before treatment (unstressed antibody, 10 mg/mL).
Assay [7] has the same target. In words: ELISA on human GDF15, antibody after 2 weeks at 37 °C in PBS; PBS, 37 C for 2 weeks (not plasma). The protocol:
[…] of the antibodies to be tested (final concentration 1 mg/ml) were added to 200 μl of plasma and PBS, respectively, tightly sealed and placed at 37° C. for 2 weeks. The change of protein binding activity was detected by ELISA.

A word on the IC50: it is the midpoint of a concentration-inhibition curve. As a reminder, the EC50 is the concentration that produces a half-maximal response.

B1: 53E5(hz) (antibody, human IgG1, kappa, V domains shown)
VH: QVQLQESGPGLVKPSETLSLTCTFSGFSLSTSGMGVGWIRQPPGKGLEWLAHILWDDVKRYNPALKSRLTISKDSSKSQISLKLSSVTAADTAVYYCVQMAWDWFAYWGQGTTVTVSS
VL: DIQMTQSPSSLSASVGDRVTITCKASQNVDTNVAWYQQKPGQSPKALIYSASYRSSGVPSRFSGSGSGTDFTLTISSLQPEDFATYYCQQYHSYPTFGQGTRLEIKR
notes: also called S3E5 (hz); humanized antibody 53E5
Turning to B1, in the assay with GDF15-mFC protein, the IC50 is 0.253 µg/mL. Besides, the OD450.Max worked out at 1.05 OD450 in the assay with GDF15-mFC protein, 1.05 OD450 in assay [2] and 1.03 OD450 in the assay with cynoGDF15-mFC. Also, the EC50 in [1] was 0.0699 µg/mL; in assay [2] it was 0.0833 µg/mL; with cynoGDF15-mFC, 0.0816 µg/mL; in assay [3], 0.0648 µg/mL; in [6], 0.0588 µg/mL; in assay [7], 0.127 µg/mL. Further, the “EC50 (read off the curve) of GDF15-His for luciferase induction with 0.1 µg/ml antibody present” value in [4] was ~0.02 µg/mL. In [5], the “Bottom (luciferase activity fold, fitted curve), HEK293 SRE-LUC2-cRET-GFRAL reporter cells” value came out at 1.1. Moreover, in assay [5], the “IC50, luciferase in HEK293 SRE-LUC2-cRET-GFRAL reporter cells stimulated with GDF15-His 5 ng/ml” value was 0.0225 µg/mL.

The values are drawn from US20250092124A1 (YUNNAN BAIYAO GROUP, published 2025).
